Like-named read-outs stand apart in the source and are kept apart here.
Key:
[1] = molecular target: T1, corticotropin-releasing hormone (CRH) peptide (human and mouse, UniProt P01143 145-185 (rat entry), not fully specified); test: cell-based or functional assay
T1 peptide: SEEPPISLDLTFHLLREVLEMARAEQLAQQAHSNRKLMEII

[2] = molecular target: T1, corticotropin-releasing hormone (CRH) …; test: cell-based or functional assay

B1: PR302309-1 (antibody, human IgG1, kappa, V domains shown)
VH: QIQLVQSGPELKKPGETVKISCKASGYTFTNYGMNWVKQAPGKVLKWMGWINTYTGEPIYTDDFKGRFAFSLETSASTAYLQINNLKNEDTATYFCSRSTMITTGGVFAYWGQGTLVTVSA
VL: DVVMTQSPLSLPVTLGQPASISCRSSQTIVHSDGNTYLEWFQQRPGQSPRRLIYKVSNRFSGVPDRFSGSGSGTDFTLKISRVEAEDVGVYYCFQGSHVPWTFGGGTKVEIKR
B1 was tested, and the “hCRHR1-Luc 0.5 nM CRH IC50” value [1] was 4.42 nM.

B2: PR302309-2 (antibody, human IgG1, kappa, V domains shown)
VH: QIQLVQSGPELKKPGETVKISCKASGYTFTNYGMNWVKQAPGKVLKWMGWINTYTGEPIYTDDFKGRFAFSLETSASTAYLQINNLKNEDTATYFCSRSTMITTGGVFAYWGQGTLVTVSA
VL: DVVMTQSPLSLPVTLGQPASISCRSSQTIVHSDGNTYLEWYQQRPGQSPRLLIYKVSNRFSGVPDRFSGSGSGTDFTLKISRVEAEDLGVYYCFQGSHVPWTFGGGTKVEIKR
B2 was tested, and the “hCRHR1-Luc 0.5 nM CRH IC50” value [1] was 0.773 nM.

B3: PR302309-3 (antibody, human IgG1, kappa, V domains shown)
VH: QIQLVQSGPELKKPGETVKISCKASGYTFTNYGMNWVKQAPGKVLKWMGWINTYTGEPIYTDDFKGRFAFSLETSASTAYLQINNLKNEDTATYFCSRSTMITTGGVFAYWGQGTLVTVSA
VL: DIVMTQTPLSLSVTPGQPASISCRSSQTIVHSDGNTYLEWYLQKPGQSPQLLIYKVSNRFSGVPDRFSGSGSGTDFTLKISRVEAEDVGVYYCFQGSHVPWTFGGGTKVEIKR
In the case of B3, the “hCRHR1-Luc 0.5 nM CRH IC50” value [1] is reported as 2.22 nM.

B4: PR302309-4 (antibody, human IgG1, kappa, V domains shown)
VH: QIQLVQSGPELKKPGETVKISCKASGYTFTNYGMNWVKQAPGKVLKWMGWINTYTGEPIYTDDFKGRFAFSLETSASTAYLQINNLKNEDTATYFCSRSTMITTGGVFAYWGQGTLVTVSA
VL: DVVMTQTPLSLSVTPGQPASISCRSSQTIVHSDGNTYLEWYLQKPGQSPQLLIYKVSNRFSGVPDRFSGSGSGTDFTLKISRVEAEDLGVYYCFQGSHVPWTFGGGTKVEIKR
For B4, the “hCRHR1-Luc 0.5 nM CRH IC50” value [1] was 1.26 nM.

B5: PR302334-8 (antibody, human IgG1, kappa, V domains shown)
VH: EVQLVESGGGLVQPGGSLRLSCAASGFTFSTYAMSWVRQAPGKGLEWVASIRSGGTTYYPDSVKGRFTISRDNSKNTLYLQMNSLRAEDTAVYYCTRGIDWGQGTTVTVSS
VL: EIVMTQSPATLSVSPGERATLSCKASQSVNNDVAWYQQKPGQAPRLLIYYASNRYTGIPARFSGSGSGTEFTLTISSLQSEDLAVYFCQQDYSSWTFGGGTKVEIKR
With B5 the “hCRHR1-Luc 0.5 nM CRH IC50” value [2] was 0.816 nM.

B6: PR302334-9 (antibody, human IgG1, kappa, V domains shown)
VH: EVQLVESGGGLVQPGGSLRLSCAASGFTFSTYAMSWVRQAPGKGLEWVASIRSGGTTYYPDSVKGRFTISRDNSKNTLYLQMNSLRAEDTAVYYCTRGIDWGQGTTVTVSS
VL: DIVMTQSPDSLAVSLGERATINCKASQSVNNDVAWYQQKPGQPPRLLIYYASNRYTGVPDRFSGSGSGTDFTLTISSLQAEDVAVYYCQQDYSSWTFGGGTKVEIKR
B6 was tested, and the “hCRHR1-Luc 0.5 nM CRH IC50” value [2] was 1.42 nM.

B7: PR302334-10 (antibody, human IgG1, kappa, V domains shown)
VH: EVQLVESGGGLVQPGGSLRLSCAASGFTFSTYAMSWVRQAPGKGLEWVASIRSGGTTYYPDSVKGRFTISRDNSKNTLYLQMNSLRAEDTAVYYCTRGIDWGQGTTVTVSS
VL: DIVMTQSPDSLAVSLGERATINCKASQSVNNDVAWYQQKPGQPPRLLIYYASNRYTGVPDRFSGSGSGTDFTLTISSLQAEDLAVYFCQQDYSSWTFGGGTKVEIKR
For B7, the “hCRHR1-Luc 0.5 nM CRH IC50” value [2] was 0.839 nM.

B8: PR302334-11 (antibody, human IgG1, kappa, V domains shown)
VH: EVQLVESGGGLVQPGGSLRLSCAASGFTFSTYAMSWVRQAPGKGLEWVASIRSGGTTYYPDSVKGRFTISRDNSKNTLYLQMNSLRAEDTAVYYCTRGIDWGQGTTVTVSS
VL: DIQMTQSSLSASVSLGDRVTITCKASQSVNNDVAWYQQKPGKAPRLLIYYASNRYTGVPSRFSGSGSGTDFTFTISSLQPEDIATYYCQQDYSSWTFGGGTKVEIKR
For B8, the “hCRHR1-Luc 0.5 nM CRH IC50” value [2] was 1 nM.

B9: PR302334-12 (antibody, human IgG1, kappa, V domains shown)
VH: EVQLVESGGGLVQPGGSLRLSCAASGFTFSTYAMSWVRQAPGKGLEWVASIRSGGTTYYPDSVKGRFTISRDNSKNTLYLQMNSLRAEDTAVYYCTRGIDWGQGTTVTVSS
VL: DIQMTQSSLSASVSLGDRVTITCKASQSVNNDVAWYQQKPGKAPRLLIYYASNRYTGVPSRFSGSGSGTDFTFTISSLQPEDLATYFCQQDYSSWTFGGGTKVEIKR
With B9 the “hCRHR1-Luc 0.5 nM CRH IC50” value [2] was 0.986 nM.

B10: PR302334-15 (antibody, human IgG1, kappa, V domains shown)
VH: EVQLVESGGGLVKPGGSLRLSCAASGFTFSTYAMSWVRQAPGKGLEWVSSIRSGGTTYYPDSVKGRFTISRDNAKNSLYLQMNSLRAEDTAVYYCARGIDWGQGTTVTVSS
VL: NIVMTQTPKFLLVSAGDRITITCKASQSVNNDVAWYQQKPGQSPKLLIYYASNRYTGVPDRFTGSGYGTDFTFTISTVQAEDLAVYFCQQDYSSWTFGGGTNLEIKR
B10 was tested, and the “hCRHR1-Luc 0.5 nM CRH IC50” value [2] was 5.12 nM.

B11: PR302334-16 (antibody, human IgG1, kappa, V domains shown)
VH: EVQLVESGGGLVKPGGSLRLSCAASGFTFSTYAMSWVRQAPGKGLEWVASIRSGGTTYYPDSVKGRFTISRDNAKNSLYLQMNSLRAEDTAVYYCTRGIDWGQGTTVTVSS
VL: NIVMTQTPKFLLVSAGDRITITCKASQSVNNDVAWYQQKPGQSPKLLIYYASNRYTGVPDRFTGSGYGTDFTFTISTVQAEDLAVYFCQQDYSSWTFGGGTNLEIKR
B11 was tested, and the “hCRHR1-Luc 0.5 nM CRH IC50” value [2] was 0.339 nM.

B12: PR302334-24 (antibody, human IgG1, kappa, V domains shown)
VH: EVQLVESGGGLVKPGGSLRLSCAASGFTFSTYAMSWVRQAPGKGLEWVASIRSGGTTYYPDSVKGRFTISRDNAKNSLYLQMNSLRAEDTAVYYCTRGIDWGQGTTVTVSS
VL: DIVMTQSPDSLAVSLGERATINCKASQSVNNDVAWYQQKPGQPPRLLIYYASNRYTGVPDRFSGSGSGTDFTLTISSLQAEDLAVYFCQQDYSSWTFGGGTKVEIKR
For B12, the “hCRHR1-Luc 0.5 nM CRH IC50” value [2] was 0.778 nM.

B13: PR302334-25 (antibody, human IgG1, kappa, V domains shown)
VH: EVQLVESGGGLVKPGGSLRLSCAASGFTFSTYAMSWVRQAPGKGLEWVASIRSGGTTYYPDSVKGRFTISRDNAKNSLYLQMNSLRAEDTAVYYCTRGIDWGQGTTVTVSS
VL: DIQMTQSSLSASVSLGDRVTITCKASQSVNNDVAWYQQKPGKAPRLLIYYASNRYTGVPSRFSGSGSGTDFTFTISSLQPEDLATYFCQQDYSSWTFGGGTKVEIKR
With B13 the “hCRHR1-Luc 0.5 nM CRH IC50” value [2] was 1.7 nM.

B14: PR302334-17 (antibody, human IgG1, kappa, V domains shown)
VH: EVQLVESGGGLVQPGGSLRLSCAASGFTFSTYAMSWVRQAPGKGLEWVSSIRSGGTTYYPDSVKGRFTISRDNSKNSLYLQMNSLRAEDTAVYYCARGIDWGQGTTVTVSS
VL: NIVMTQTPKFLLVSAGDRITITCKASQSVNNDVAWYQQKPGQSPKLLIYYASNRYTGVPDRFTGSGYGTDFTFTISTVQAEDLAVYFCQQDYSSWTFGGGTNLEIKR
B14 was tested, and the “hCRHR1-Luc 0.5 nM CRH IC50” value [2] was 12.2 nM.

B15: PR302334-22 (antibody, human IgG1, kappa, V domains shown)
VH: EVQLVESGGGLVQPGGSLRLSCAASGFTFSTYAMSWVRQAPGKGLEWVSSIRSGGTTYYPDSVKGRFTISRDNSKNSLYLQMNSLRAEDTAVYYCARGIDWGQGTTVTVSS
VL: EIVMTQSPATLSVSPGERATLSCKASQSVNNDVAWYQQKPGQAPRLLIYYASNRYTGIPARFSGSGSGTEFTLTISSLQSEDLAVYFCQQDYSSWTFGGGTKVEIKR
For B15, the “hCRHR1-Luc 0.5 nM CRH IC50” value [2] was 0.92 nM.

B16: PR302334-18 (antibody, human IgG1, kappa, V domains shown)
VH: EVQLVESGGGLVQPGGSLRLSCAASGFTFSTYAMSWVRQAPGKGLEWVASIRSGGTTYYPDSVKGRFTISRDNSKNSLYLQMNSLRAEDTAVYYCTRGIDWGQGTTVTVSS
VL: NIVMTQTPKFLLVSAGDRITITCKASQSVNNDVAWYQQKPGQSPKLLIYYASNRYTGVPDRFTGSGYGTDFTFTISTVQAEDLAVYFCQQDYSSWTFGGGTNLEIKR
In the case of B16, the “hCRHR1-Luc 0.5 nM CRH IC50” value [2] is reported as 0.279 nM.

Reference: US20250197490A1 (HBM ALPHA THERAPEUTICS, published 2025)
